One assay deals with PANC-1 cells. Kind of assay: Survival assay with cytotoxin-conjugated antibodies, PANC-1. It is filed as cell-based, human. The settings on record: PANC-1, 1 μg/ml, 12 h treatment then 72 h growth. The method, then:
(§1) The relative number of viable cells was then measured by adding the CellTiter AQueous One Solution Reagent to each well and measuring absorbance at 490 nm as described above. […] Cells were imaged by wide-field fluorescence microscopy and the total area of confluence for each cell type was quantified by image analysis using Image J software.

Another assay deals with TKCC05 cells. Kind of assay: Survival assay with cytotoxin-conjugated antibodies, TKCC05. It is filed as cell-based, human. The settings on record: TKCC05, 1 μg/ml, 12 h treatment then 72 h growth. As for the experimental part: as §1
The subject of assay [1] is p-CDCP1-Y734 in HEY cells. Kind of assay: Western blot of CDCP1-Y734 and Src-Y416 phosphorylation in HEY cells. Conditions: 5 μg/ml. It counts as cell-based, human. As for the experimental part:
Cells were biotinylated (4° C., 1 h) with cell-impermeant EZ-link NHS-SS Biotin (1.22 mg/ml; Thermo) then PBS washed and lysed in buffer containing 20 mM HEPES, 150 mM NaCl, 1 mM EDTA, 1% Triton X-100, 1×Complete protease inhibitor cocktail (PIC) and phosphatase inhibitors (2 mM Na3VO4, 10 mM NaF). After centrifugation the supernatant was incubated (15 minutes, 4° C.) with ImmunoPure immobilized streptavidin beads (Thermo). After pelleting, the supernatant containing intracellular proteins was transferred to a separate tube, and the beads washed in lysis buffer containing PIC and phosphatase inhibitors. Lysates and proteins separated by cell surface biotinylation (40 μg/lane) were examined by Western blot analysis as described (He Y, et al., (2016) Oncogene. 35(4):468-78).
Since Src tyrosine phosphorylation is important in CDCP1-mediated signal transduction (Casar B, et al., (2012) Oncogene. 31(35):3924-38), the inventors next examined this in antibody induced processing of CDCP1. […] Live-cell images of the four cell lines were analysed to determine the distance moved (track length) by individual CDCP1^GFP positive puncta during mAb-induced internalization (FIG. 5C, left). […]
For orientation: Immunoblotting shows a protein as a band on a membrane.

Assay [2] concerns subcutaneous TKCC05 cells xenografts. Kind of assay: TKCC05 subcutaneous xenograft, MMAE-conjugated antibodies. It counts as in vivo, mouse. The settings on record: 5 mg/kg i.v. on day 27 and 41, in comparison with the other treatments. The method, then:
Mouse experiments were approved by the University of Queensland Animal Ethics Committee. PDAC cells (2.5×10^6) were injected subcutaneously into the flanks of NOD.Cg-Prkdcscid Il2rgtm1Wjl/SzJ (NSG) mice (6-8 weeks; Jackson Laboratory, Bar Harbor, Me.). For assays assessing the impact of antibody 10D7 on xenograft growth, two weeks after PDAC cell inoculations, mice (n=6/group) were randomized and treated i.v. every four days with PBS, 10D7 (5 mg/kg) or IgG (5 mg/kg) until the end of the assay. For assays assessing whether 10D7 improves the efficacy of gemcitabine chemotherapy, four weeks after PDAC cell inoculations, mice were randomized and treated i.v. every four days with PBS (n=12), 10D7 (n=12, 5 mg/kg) or IgG (n=12, 5 mg/kg). Half of the mice in each of the three groups also received gemcitabine i.p. treatments (125 mg/kg/week). At the end of the assay tumours were harvested, weighed and processed for assessment of histology and CDCP1 expression by immunohistochemistry or western blot analysis. […] Tumour burden was monitored by calliper measurement and tumour volume calculated as previously described (Feldman J P, Goldwasser R, Mark S, Schwartz J (2009) Journal of Applied Quantitative Methods 4(4):455-462). […]
Finally, the inventors evaluated whether the PDAC targeting ability of antibody 10D7 can be harnessed to effectively deliver the cytotoxin MMAE to PDAC in vivo. […]

From patent publication US20220389113A1, “BINDING PROTEINS TO CUB DOMAIN-CONTAINING PROTEIN (CDCP1)” (COMMONWEALTH SCIENTIFIC AND INDUSTRIAL RESEARCH ORGANISATION, priority 2019, published 2022) come the findings set out here.

B1: 10D7-MMAE (conjugate)
VH: EVQLQQFGAELVKPGASVKISCKASGYSFSDFNIEWLKQSHGKSLEWIGDINPNYDSTNYNQKFKGRATLTVDKSSSTAYMEVRSLTSEDTAVYYCARLGYGYAMDYWGQGTSVTVSS
VL: NIVMTQSPQSMSMSVGERVTLSCKASENVGAYVSWFQQKPDQSPKLLILAASNRYTGVPARFIGSGSATDFTLTISSVQAEDLADYHCGQSYTYPYTFGGGTKLEIKRADAAPTVS
On to B1, for which the survival of cells entry with PANC-1 cells is “about 20%”. Further, in the assay on TKCC05 cells, the survival of cells result is “about 10%”. Moreover, the “time to phosphorylation of CDCP1-Y734 and Src-Y416” value in assay [1] is at most 1 h. Moreover, in assay [2], the “survival of xenografted mice” value is listed as “significantly extended survival” and the tumour growth entry is “markedly inhibited tumour growth”.
